# In paper PMC11324310:
# Target: C-t FLAG-tagged WT-RELN (mouse) (UniProt Q60841)
# Experiment: immunoblot in non-reducing conditions (SDS-PAGE); culture media of HEK293T cells coexpressing FLAG-WT-RELN and monoallelic variants; non-reducing conditions
substance,measurement,value
"C-t FLAG-tagged WT-RELN, Q60841 27-3461",stoichiometry N,2
